{
  "source": "paper PMC9202080",
  "about": "“Evolution of homo‐oligomerization of methionine S‐adenosyltransferases is replete with structure–function constrains” (Protein Science : A Publication of the Protein Society, 2022)",
  "molecules": {"B1": {"name": "Escherichia coli methionine S-adenosyltransferase E67K K98Q (enzyme)", "chain": "MAKHLFTSESVSEGHPDKIADQISDAVLDAILEQDPKARVACETYVKTGMVLVGGEITTSAWVDIEKITRNTVREIGYVHSDMGFDANSCAVLSAIGQQSPDINQGVDRADPLEQGAGDQGLMFGYATNETDVLMPAPITYAHRLVQRQAEVRKNGTLPWLRPDAKSQVTFQYDDGKIVGIDAVVLSTQHSEEIDQKSLQEAVMEEIIKPILPAEWLTSATKFFINPTGRFVIGGPMGDCGLTGRKIIVDTYGGMARHGGGAFSGKDPSKVDRSAAYAARYVAKNIVAAGLADRCEIQVSYAIGVAEPTSIMVETFGTEKVPSEQLTLLVREFFDLRPYGLIQMLDLLHPIYKETAAYGHFGREHFPWEKTDKAQLLRDAAGLK", "notes": "methionine S-adenosyltransferase (MAT) of Escherichia coli with the salt-bridge residues of the small interface swapped to those of NgMAT; made from the EcMAT construct by site directed mutagenesis; also called EcMATmut; E. coli E67K K98Q; source: E. coli BL21 (DE3), pET24a, purified (Ni-NTA)"}, "B2": {"name": "Escherichia coli methionine S-adenosyltransferase (enzyme)", "chain": "AKHLFTSESVSEGHPDKIADQISDAVLDAILEQDPKARVACETYVKTGMVLVGGEITTSAWVDIEEITRNTVREIGYVHSDMGFDANSCAVLSAIGKQSPDINQGVDRADPLEQGAGDQGLMFGYATNETDVLMPAPITYAHRLVQRQAEVRKNGTLPWLRPDAKSQVTFQYDDGKIVGIDAVVLSTQHSEEIDQKSLQEAVMEEIIKPILPAEWLTSATKFFINPTGRFVIGGPMGDCGLTGRKIIVDTYGGMARHGGGAFSGKDPSKVDRSAAYAARYVAKNIVAAGLADRCEIQVSYAIGVAEPTSIMVETFGTEKVPSEQLTLLVREFFDLRPYGLIQMLDLLHPIYKETAAYGHFGREHFPWEKTDKAQLLRDAAGLK", "notes": "methionine S-adenosyltransferase (MAT) of Escherichia coli; Homotetramer (dimer of dimers) in solution; the self-association rows are of this chain with itself; also called EcMAT; E. coli MAT; source: E. coli BL21 (DE3), pET24a, purified (Ni-NTA)"}, "B3": {"name": "Lactiplantibacillus plantarum methionine S-adenosyltransferase (enzyme, UniProt Q88XB8 1-395, looked up)", "chain": "MSERHLFTSESVSEGHPDKIADQISDAILDAMLAQDPQARVAVETSVTTGLVLVFGEVSTKAYVDIQKVVRDTIKSIGYVDGQYGFDGDNCAVLVSLDEQSPDIAQGVDDSLETRSGDADPLDQIGAGDQGMMFGYAINETPELMPLPIALSHRLMRKIAALRKDGTIKWLRPDAKAQVTVEYDEDNQPKRIDTVVLSTQHDPDVDLDTIRQTVIDQVIKAVLPADLLDDQTKYLVNPTGRFVIGGPQGDAGLTGRKVIVDTYGGFAHHGGGAFSGKDATKVDRSASYAARYIAKNVVAAGLADQVEVQLAYAIGVAEPVSIAVDTAGTGKVSDEALINAIRENFDLRPAGIIKMLDLQRPIYRQTAAYGHFGRTDIDLPWEHTDKVDALKAVFK", "notes": "also called LpMAT; MAT from Lactiplantibacillus planatrum; source: E. coli BL21 (DE3), pET24a, purified (Ni-NTA)"}, "B4": {"name": "Neisseria gonorrhoeae methionine S-adenosyltransferase (enzyme, UniProt B4RQ36 1-389, looked up)", "chain": "MSEYLFTSESVSEGHPDKVADQVSDAILDAILAQDPKARVAAETLVNTGLCVLAGEITTTAQVDYIKVARETIKRIGYNSSELGFDANGCAVGVYYDQQSPDIAQGVNEGEGIDLNQGAGDQGLMFGYACDETPTLMPFAIYYSHRLMQRQSELRKDGRLPWLRPDAKAQLTVVYDSETGKVKRIDTVVLSTQHDPAISHEELSKAVIEQIIKPVLPPELLTDETKYLINPTGRFVIGGPQGDCGLTGRKIIVDTYGGAAPHGGGAFSGKDPSKVDRSAAYACRYVAKNIVAAGLATQCQIQVSYAIGVAEPTSISIDTFGTGKISEEKLIALVCEHFDLRPKGIVQMLDLLRPIYGKSAAYGHFGREEPEFTWERTDKAASLKAAAGL", "notes": "methionine S-adenosyltransferase of Neisseria gonorrhoeae; also called NgMAT; N. gonorrhoeae MAT; source: E. coli BL21 (DE3), pET24a, purified (Ni-NTA)"}},
  "key": {"[1]": {"target": "T1, NgMAT (Neisseria gonorrhoeae, UniProt Q5FAC0)", "T1 construct": "gene metK; full length, C-terminal His6 tag, codon-optimised synthetic gene, E. coli BL21(DE3), dimer without substrates, functional homotetramer with substrates", "T1 sequence (Q5FAC0 1-389)": "B4 chain with H200Q", "assay": "SAM formation, size exclusion chromatography", "type": "biochemical"}, "[2]": {"target": "T1, NgMAT", "assay": "size exclusion chromatography, ligand-induced tetramerization", "type": "binding", "details": "10 uM NgMAT; AMP-PNP alone or with methionine"}, "[3]": {"target": "the molecule itself", "assay": "crystal structure; EcMATmut + 5 mM AMPPNP + 5 mM methionine, 1.6 Å, space group P42212, one copy in the asymmetric unit"}, "[4]": {"target": "the molecule itself", "assay": "SEC; diluted from ~300 μM stocks to 10 μM, incubated 100 hr at 25°C in 50% glycerol, sampled by SEC until equilibrium (~75 hr); Kd calculated from the tetrameric fraction; tetramer to dimers"}, "[5]": {"target": "the molecule itself", "assay": "SEC; Superdex 200 Increase, 25 mM TrisHCl, 150 mM KCl, 1 mM DTT; protein diluted from a 300 μM stock, pre-incubated diluted for an hour, then injected; EcMAT 1.56–100 μM, NgMAT 10–100 μM; no substrates"}, "[6]": {"target": "the molecule itself", "assay": "crystal structure; LpMAT + 5 mM AMPPNP + 5 mM methionine, 2.82 Å, space group P1, eight copies in the asymmetric unit"}, "[7]": {"target": "the molecule itself", "assay": "SEC; 10 μM NgMAT pre-incubated with saturated methionine alone or ATP alone"}, "[8]": {"target": "the molecule itself", "assay": "SEC; 10 μM NgMAT pre-incubated with saturated methionine and ATP together"}},
  "note": "Numbering of substitutions follows the chain as printed. Names and notes keep the numbering of the source.",
  "data": [
    {"molecule": "Nc1ncnc2c1ncn2[C@@H]1O[C@H](COP(=O)(O)OP(=O)(O)OP(=O)(O)O)[C@@H](O)[C@H]1O", "note": "[ATP]", "values": [
      {"measurement": "SAM formation, size exclusion chromatography", "setting": "[1]; 10 uM NgMAT with methionine", "value": "in the presence of both substrates we saw a marked shift of NgMAT toward tetramerization"}
    ]},
    {"molecule": "Nc1ncnc2c1ncn2[C@@H]1O[C@H](COP(=O)(O)OP(=O)(O)NP(=O)(O)O)[C@@H](O)[C@H]1O", "note": "[AMP-PNP]", "values": [
      {"measurement": "size exclusion chromatography, ligand-induced tetramerization", "setting": "[2]", "value": "We found that AMP‐PNP increased the tetrameric species substantially"}
    ]},
    {"molecule": "CSCC[C@H](N)C(=O)O", "note": "[methionine]", "values": [
      {"measurement": "SAM formation, size exclusion chromatography", "setting": "[1]; 10 uM NgMAT with ATP", "value": "in the presence of both substrates we saw a marked shift of NgMAT toward tetramerization"}
    ]},
    {"molecule": "B1", "values": [
      {"measurement": "stoichiometry N", "setting": "[3]", "value": 4},
      {"measurement": "Kd", "setting": "[4]", "value": 90.3, "unit": "µM"}
    ]},
    {"molecule": "B2", "values": [
      {"measurement": "Kd", "setting": "[4]", "value": 8.2, "unit": "µM"},
      {"measurement": "stoichiometry N", "setting": "[5]", "value": 4}
    ]},
    {"molecule": "B3", "values": [
      {"measurement": "stoichiometry N", "setting": "[6]", "value": 2}
    ]},
    {"molecule": "B4", "values": [
      {"measurement": "stoichiometry N", "setting": "[7]", "value": 2},
      {"measurement": "stoichiometry N", "setting": "[8]", "value": 4}
    ]}
  ]
}
